# Results from publication PMC11514447, “Eukaryotic initiation factor 4B is a multi-functional RNA binding protein that regulates histone mRNAs”.
# B1: His1-FL (structured_RNA)
# RNA: UCCUUUGGCCAACUGCUUAGAAGCCCAACACAACCCAAAGGCUCUUUUCAGAGCCACCCA
# Molecular target: eIF4B (UniProt P23588 1-611)
# Experiment: fluorescence polarization; 2 mM ATP, 2 mM Mg2+; 20 mM HEPES/KOH pH 7.5, 100 mM KCl, 1 mM TCEP, 2 mM ATP, 2 mM MgCl2, 40 nM FAM-RNA, 60 min, 25 C; Kd values only in figures (one-site fit, n=3)
# Conditions: protein: recombinant
# eIF4B, sequence (P23588 whole entry): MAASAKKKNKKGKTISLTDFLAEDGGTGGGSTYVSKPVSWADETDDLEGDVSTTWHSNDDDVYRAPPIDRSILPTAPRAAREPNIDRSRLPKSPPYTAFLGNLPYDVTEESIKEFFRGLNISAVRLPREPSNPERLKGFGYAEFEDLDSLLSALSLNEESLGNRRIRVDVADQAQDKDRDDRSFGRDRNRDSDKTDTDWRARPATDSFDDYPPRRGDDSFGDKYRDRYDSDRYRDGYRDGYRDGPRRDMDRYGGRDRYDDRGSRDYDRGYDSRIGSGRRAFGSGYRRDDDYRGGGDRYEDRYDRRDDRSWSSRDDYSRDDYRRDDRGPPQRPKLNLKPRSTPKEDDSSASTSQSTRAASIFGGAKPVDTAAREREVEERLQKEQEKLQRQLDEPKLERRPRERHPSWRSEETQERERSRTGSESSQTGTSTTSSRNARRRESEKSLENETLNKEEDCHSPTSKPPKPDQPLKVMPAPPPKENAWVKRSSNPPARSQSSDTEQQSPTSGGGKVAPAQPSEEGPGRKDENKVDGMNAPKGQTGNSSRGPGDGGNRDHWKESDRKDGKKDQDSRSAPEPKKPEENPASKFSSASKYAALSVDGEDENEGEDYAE
Binder,"binding result (3' hairpin, 6-bp stem, 4-nt loop)",binding result
B1,binds,–
GGCUGGCGUGAGGGUCUCCCUUGAUCUGAGAAUG (ssRNA) [CDK4-5'UTR],–,binds
UCCUUUGGCCAACUGCUUAGAAGCCCAACACAACCCAAA (ssRNA) [His1-ssRNA],–,binds
GCUGCACUCUUAUUUUCAUUUUCAACCAAA (ssRNA) [His4-ssRNA],–,binds
